The Kd is the concentration at which binding is half-saturated.

B1: lpqA (dsDNA)
DNA 1: GCACCTTCACCGCCCGCCCACAGCCACGCA
DNA 2: TGCGTGGCTGTGGGCGGGCGGTGAAGGTGC
B2: DRs3 (3-bp spacer) (dsDNA)
DNA 1: AAGTACCTCACAGCACTTCACAGCTTTCAT
DNA 2: ATGAAAGCTGTGAAGTGCTGTGAGGTACTT
B3: tri (three motifs) (dsDNA)
DNA 1: GTACCTCACAGCACTTTCACAGCTTTCTCACAGCATCTATG
DNA 2: CATAGATGCTGTGAGAAAGCTGTGAAAGTGCTGTGAGGTAC
B4: hisG (dsDNA)
DNA 1: CGCGACCCGCAGCATGCTCACAGCTTTCGA
DNA 2: TCGAAAGCTGTGAGCATGCTGCGGGTCGCG
B5: DR (dsDNA)
DNA 1: ACGATTCACAGCTGATTCACAGCATCTACG
DNA 2: CGTAGATGCTGTGAATCAGCTGTGAATCGT
B6: ahpC (dsDNA)
DNA 1: TTTGCCTGACAGCGACTTCACGGCACGATG
DNA 2: CATCGTGCCGTGAAGTCGCTGTCAGGCAAA
B7: tetra (four motifs) (dsDNA)
DNA 1: GTACCTCACAGCACTTTCACAGCTTTCTCACAGCTGATTCACAGCATCTATG
DNA 2: CATAGATGCTGTGAATCAGCTGTGAGAAAGCTGTGAAAGTGCTGTGAGGTAC
B8: RD6-half (dsDNA)
DNA 1: CAGAAGTCACAGCACTTGGG
DNA 2: CCCAAGTGCTGTGACTTCTG
B9: RD6 (dsDNA)
DNA 1: AAGTACCTCACAGCACTTTCACAGCTTTCAT
DNA 2: ATGAAAGCTGTGAAAGTGCTGTGAGGTACTT
B10: crystal direct-repeat DNA (dsDNA)
DNA 1: GATTCACAGCTGATTCACAGCATCTA
DNA 2: CTAGATGCTGTGAATCAGCTGTGAAT

The first series addresses T1, PhoP wild type (Mycobacterium tuberculosis, UniProt P71814 1-247). Briefly: ITC; 5 mM MgCl2; ITC: 20 mM HEPES pH 7.5, 100 mM NaCl, 5 mM MgCl2, 25 C, […]. As to conditions: protein: recombinant; tags: N-terminal His-tag removed with TEV; chain copies: 2. For orientation: In ITC the heat of successive injections is recorded.
For B1, the Kd was 347 ± 35.1 nM.
On the same count and under the same terms, then B2, with 433 ± 17.5 nM.
Same read-out and setting: the result for B3 reads 4.6 ± 2.7 nM.
For the molecule B4, the Kd came out at 35.6 ± 4.3 nM.
Still for that read-out and setting: the result for B5 reads 19.2 ± 2.8 nM.
As to B6, the Kd was 104 ± 7.2 nM.
Same read-out and setting: the result for B7 reads 2.2 ± 0.7 nM.

The next series has as its target PhoPC (isolated effector/DNA-binding domain) (Mycobacterium tuberculosis, UniProt P71814 148-247). Briefly: ITC; 5 mM MgCl2; ITC: 20 mM HEPES pH 7.5, 100 mM NaCl, 5 mM MgCl2, 25 C, DNA titrated into protein. To be noted: protein: recombinant; tags: His-tag removed (similar procedure); chain copies: 2.
For the molecule B8, the Kd was 12200 ± 1600 nM.
Same read-out and setting: the result for B9 reads 188 ± 9 nM.

In a further series the target is T1, PhoP wild type. Briefly: X-ray crystal structure (2.4 A); Ca2+ at Asp71; 2:1 PhoP:DNA; ITC: 20 mM HEPES pH 7.5, 100 mM NaCl, 5 mM MgCl2, 25 C, […]. To be noted: protein: recombinant; tags: N-terminal His-tag removed with TEV; chain copies: 2; G/C overhangs.
Take B10: the binding result was “binds”.
